Measurements as given in the supplement of paper PMC9233669.
Fewer inactive variants are shown than the library holds.

Key:
biotinyl-Val-oxazolone = assay: self-aminoacylation, catalytic enhancement (BVO) (fold over background); higher = more active; k-Seq, kA / k0A0; sequences stand for … in GGGAAUGGAUCCACAUCUACGAAUUC…UUCACUGCAGACUUGACGAAGCUG
How it was run: (§1)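 Mutagenized RNA pools with a 21-nt variable region (0.43 μM) reacted with each biotinyl-aminoacyl-oxazolone at 2–1250 μM. Reactions ran in 50 μL HEPES/NaCl/KCl/MgCl2/CaCl2 buffer with 5% acetonitrile, pH 6.9–7.0, for 90 minutes at room temperature. Streptavidin-captured RNA was quantified by triplicate qPCR and Illumina sequencing, and per-sequence fraction reacted was fit to a pseudo-first-order model with 1000 bootstraps. Catalytic enhancement is median kA divided by the uncatalyzed rate, the low-activity peak of a bimodal Gaussian fit.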

biotinyl-Met-oxazolone = assay: self-aminoacylation, catalytic enhancement (BMO) (fold over background); higher = more active; k-Seq, kA / k0A0; sequences stand for … in GGGAAUGGAUCCACAUCUACGAAUUC…UUCACUGCAGACUUGACGAAGCUG
How it was run: as §1

biotinyl-Ile-oxazolone = assay: self-aminoacylation, catalytic enhancement (BIO) (fold over background); higher = more active; k-Seq, kA / k0A0; sequences stand for … in GGGAAUGGAUCCACAUCUACGAAUUC…UUCACUGCAGACUUGACGAAGCUG
How it was run: as §1

biotinyl-Phe-oxazolone = assay: self-aminoacylation, catalytic enhancement (BFO) (fold over background); higher = more active; k-Seq, kA / k0A0; sequences stand for … in GGGAAUGGAUCCACAUCUACGAAUUC…UUCACUGCAGACUUGACGAAGCUG
How it was run: as §1

biotinyl-Trp-oxazolone = assay: self-aminoacylation, catalytic enhancement (BWO) (fold over background); higher = more active; k-Seq, kA / k0A0; sequences stand for … in GGGAAUGGAUCCACAUCUACGAAUUC…UUCACUGCAGACUUGACGAAGCUG
How it was run: as §1

biotinyl-Leu-oxazolone = assay: self-aminoacylation, catalytic enhancement (BLO) (fold over background); higher = more active; k-Seq, kA / k0A0; sequences stand for … in GGGAAUGGAUCCACAUCUACGAAUUC…UUCACUGCAGACUUGACGAAGCUG
How it was run: as §1

| Sequence | self-aminoacylation (biotinyl-Val-oxazolone) | self-aminoacylation (biotinyl-Met-oxazolone) | self-aminoacylation (biotinyl-Ile-oxazolone) | self-aminoacylation (biotinyl-Phe-oxazolone) | self-aminoacylation (biotinyl-Trp-oxazolone) | self-aminoacylation (biotinyl-Leu-oxazolone) |
| --- | --- | --- | --- | --- | --- | --- |
| CCAUACUUCAAGCAAUCGGUU [Fam1B.1 aminoacylation ribozyme variant] | 1.71 | 1.17 | 1.61 | 3.48 | 2.98 | 1.61 |
| AUUAACCUGGUCAUCGAGUGA [Fam2.1 aminoacylation ribozyme variant] | 4.02 | 7.3 | 3.97 | 8.46 | 8.57 | 7.64 |
| CCACACUUCAACCAUUCGGUC [Fam1B.1 aminoacylation ribozyme variant] | 1.35 | 1.52 | 1.51 | 6.93 | 1.98 | 1.25 |
| CUGCUUCAAACAAUUGGUCUG [Fam1A.1 aminoacylation ribozyme variant] | 0.657 | 0.715 | 0.789 | 1.54 | 1.19 | 0.726 |
| AUUCACCUAGGUCAGCGGGUA [Fam2.2 aminoacylation ribozyme variant] | 2.08 | 2.18 | 2.12 | 10.5 | 2.05 | 3.01 |
| AUUUCUCUGGUCAUCGAGUGA [Fam2.1 aminoacylation ribozyme variant] | 3.2 | 5.74 | 3.1 | 20.5 | 7.1 | 5.82 |
| UUUCACCUAGGUCAUCGCGUG [Fam2.2 aminoacylation ribozyme variant] | 6.67 | 9.16 | 6.66 | 84 | 9.42 | 11.4 |
| CUACGUCAAGCAAUCGGUCUG [Fam1A.1 aminoacylation ribozyme variant] | 1.72 | 1.39 | 1.63 | 1.88 | 1.17 | 1.47 |
| GCACACUUCAAGCGAUCGGUC [Fam1B.1 aminoacylation ribozyme variant] | 1.82 | 1.33 | 1.66 | 1.41 | 2.19 | 1.54 |
| UUACUUCAAACAAUCGGGCUG [Fam1A.1 aminoacylation ribozyme variant] | 1.66 | 1.93 | 1.76 | 8.04 | 7.54 | 2.22 |
| CCACUCUUCAGGCAAUCGGUC [Fam1B.1 aminoacylation ribozyme variant] | 1.49 | 1.34 | 1.31 | 0.929 | 1.23 | 1.33 |
| AUUACCCUGGUCAUCGACUGU [Fam2.1 aminoacylation ribozyme variant] | 0.804 | 0.726 | 0.846 | 0.377 | 0.723 | 0.82 |
| CCACACUUCAAGCAAUCAGUA [Fam1B.1 aminoacylation ribozyme variant] | 0.842 | 0.861 | 0.983 | 1.17 | 0.842 | 0.899 |
| AUUCACCCAGGUCAUCGGGGG [Fam2.2 aminoacylation ribozyme variant] | 1.6 | 2.1 | 1.86 | 11.7 | 1.92 | 2.17 |
| GUUACUCUGGUCAUCGAGUGA [Fam2.1 aminoacylation ribozyme variant] | 4.18 | 6.92 | 4.98 | 32.9 | 9.78 | 7.08 |
| AUUCACCUAGGUCACCGGGUU [Fam2.2 aminoacylation ribozyme variant] | 1.98 | 2.18 | 1.77 | 10 | 3.01 | 2.59 |
| AUUACCACGGUCAUCGAGUGA [Fam2.1 aminoacylation ribozyme variant] | 3.66 | 6.51 | 3.48 | 38.3 | 8.11 | 5.96 |
| AUUAUCCCGGUCAUCGAGUGA [Fam2.1 aminoacylation ribozyme variant] | 4.35 | 8.46 | 4.32 | 61.2 | 11 | 10.6 |
| AUUGGCCUAGGUCAUCGGGUG [Fam2.2 aminoacylation ribozyme variant] | 14.9 | 36.9 | 18.3 | 277 | 27.4 | 48 |
| CUACUUCAUACAAACGGUCUG [Fam1A.1 aminoacylation ribozyme variant] | 0.803 | 0.725 | 0.936 | 1.06 | 0.536 | 0.652 |
| AUUACCCUAGUCAUCUAGUGA [Fam2.1 aminoacylation ribozyme variant] | 3.59 | 7.37 | 3.37 | 27.6 | 10.6 | 6.97 |
| AUUCCCCUGGGCAUCGAGUGA [Fam2.1 aminoacylation ribozyme variant] | 5.1 | 10.8 | 5.22 | 65.9 | 11.6 | 11.1 |
| AUUAACCUCGGUCAUCGGGUG [Fam2.2 aminoacylation ribozyme variant] | 3.76 | 5.08 | 3.13 | 28.5 | 3.74 | 5.54 |
| AAGCUUUCUAAUAGUCGCAAG [Fam3.1 aminoacylation ribozyme variant] | 1.71 | 1.44 | 2.02 | 3.08 | 1.93 | 1.81 |
| CUAGUUCAAACAAUCGGUCCG [Fam1A.1 aminoacylation ribozyme variant] | 0.649 | 0.742 | 0.787 | 0.893 | 0.582 | 0.745 |
| AUUCCCCUGGUCAUGGAGUGA [Fam2.1 aminoacylation ribozyme variant] | 3.12 | 3.85 | 2.92 | 16.3 | 4.27 | 3.99 |

| Sequence | self-aminoacylation (biotinyl-Val-oxazolone) | self-aminoacylation (biotinyl-Met-oxazolone) | self-aminoacylation (biotinyl-Ile-oxazolone) | self-aminoacylation (biotinyl-Phe-oxazolone) | self-aminoacylation (biotinyl-Trp-oxazolone) | self-aminoacylation (biotinyl-Leu-oxazolone) |
| --- | --- | --- | --- | --- | --- | --- |
| CUACUGCAAACAAUCGUUCUG [Fam1A.1 aminoacylation ribozyme variant] | 0.735 | 0.818 | 0.702 | 0.732 | 0.574 | 0.647 |
| AUUGCCCUGGUCAUCGAGUUA [Fam2.1 aminoacylation ribozyme variant] | 2.64 | 4.84 | 2.31 | 8.37 | 4.44 | 5.24 |
| AUUCACCGAGGUCAUCGGGUG [Fam2.2 aminoacylation ribozyme variant] | 6.85 | 11.3 | 6.19 | 87 | 9.63 | 14.2 |
| CUAUUUCAAACAACCGGUCUG [Fam1A.1 aminoacylation ribozyme variant] | 0.861 | 0.85 | 0.992 | 0.87 | 0.827 | 0.844 |
| AUUCACCUAGGGGAUCGGGUG [Fam2.2 aminoacylation ribozyme variant] | 3.26 | 4.34 | 3.44 | 32 | 4.28 | 6.82 |
| GUUCACCUACGUCAUCGGGUG [Fam2.2 aminoacylation ribozyme variant] | 3.69 | 4.35 | 3.26 | 31 | 4.3 | 5.15 |
| ACUCACCUAGGUUAUCGGGUG [Fam2.2 aminoacylation ribozyme variant] | 5.05 | 3.92 | 4.89 | 46 | 7.29 | 5.42 |
| AACUUUGCUAAUAAUCGCAAG [Fam3.1 aminoacylation ribozyme variant] | 1.96 | 1.96 | 1.93 | 3.06 | 2.71 | 2.04 |
| AUUCCCCUGGCCAUCGAGUGA [Fam2.1 aminoacylation ribozyme variant] | 4.87 | 6.17 | 3.34 | 46.6 | 6.48 | 8.45 |
| AUUACCGUGGUCAUUGAGUGA [Fam2.1 aminoacylation ribozyme variant] | 3.21 | 5.36 | 3.37 | 28.2 | 7.1 | 6 |
| CCACACUUCAAGCAAACAGUC [Fam1B.1 aminoacylation ribozyme variant] | 0.757 | 0.609 | 0.816 | 1.09 | 0.375 | 0.674 |
| CUUAACCUAGGUCAUCGGGUG [Fam2.2 aminoacylation ribozyme variant] | 2.69 | 4.25 | 2.91 | 15.8 | 4.21 | 4.78 |
| CCACACUUCAUGCAAUCGGGC [Fam1B.1 aminoacylation ribozyme variant] | 1.84 | 1.25 | 1.86 | 0.961 | 1.77 | 1.38 |
| CUACUUCUAACAAUCGGCCUG [Fam1A.1 aminoacylation ribozyme variant] | 1.2 | 0.997 | 1.09 | 1.01 | 1.05 | 1.31 |
| AGUCAACUAGGUCAUCGGGUG [Fam2.2 aminoacylation ribozyme variant] | 4.95 | 7.24 | 5.91 | 49.9 | 9.37 | 8.39 |
| AAGUUUGCUUAUAGUGGCAAG [Fam3.1 aminoacylation ribozyme variant] | 0.711 | 0.861 | 0.789 | 1.38 | 0.94 | 0.644 |
| CUACUUCAAACUAUCGGCCUG [Fam1A.1 aminoacylation ribozyme variant] | 1.06 | 1.13 | 1.2 | 0.97 | 1.66 | 0.909 |
| CCACACUUCAAGCAAACGGUU [Fam1B.1 aminoacylation ribozyme variant] | 1.59 | 1.25 | 1.32 | 1.41 | 0.973 | 1.34 |
| AUCACCCUGUUCAUCGAGUGA [Fam2.1 aminoacylation ribozyme variant] | 2.78 | 4.68 | 2.85 | 30 | 5.52 | 5.15 |
| AUUUCCCUGGUCGUCGAGUGA [Fam2.1 aminoacylation ribozyme variant] | 1.08 | 1.12 | 1.06 | 4.18 | 1.55 | 1.21 |
| AUUACCCUGGUAAUUGAGUGA [Fam2.1 aminoacylation ribozyme variant] | 6.33 | 16.2 | 6.96 | 117 | 19.2 | 17.1 |
| AUUCCCAUGGUCAUCGAGUGA [Fam2.1 aminoacylation ribozyme variant] | 5.75 | 10.4 | 5.75 | 51.4 | 12.9 | 11.3 |
| AAGUUUGCUAAUAGUAGCACG [Fam3.1 aminoacylation ribozyme variant] | 0.764 | 0.733 | 0.814 | 1.39 | 0.766 | 0.619 |
| CUACUUCAAACAAUCAGUCUU [Fam1A.1 aminoacylation ribozyme variant] | 0.942 | 0.854 | 0.938 | 13.2 | 4.96 | 0.935 |
| AUUAUCCUGUUCAUCGAGUGA [Fam2.1 aminoacylation ribozyme variant] | 3 | 5.98 | 2.87 | 22.6 | 7.47 | 6 |
